Source: patent US20150218238A1, “TREATING DISEASES BY MODULATING A SPECIFIC ISOFORM OF MKL1” (NOVARTIS FORSCHUNGSSTIFTUNG, ZWEIGNIEDERLASSUNG FRIEDRICH …, priority 2012, published 2015)

System: EcR-293 cells
Experiment: DNA microarray on EcR-293 cells overexpressing MKL1 isoforms
Assay type: cell-based, human
Details: for ACTA2 fold change vs. control / ADAM21 fold change vs. control / AMBN fold change vs. control / CNN2 fold change vs. control / DSEL fold change vs. control / ESRRG fold change vs. control / MKL1 (total) fold change vs. control / MMP16 fold change vs. control / NAP1L3 fold change vs. control / OSTN fold change vs. control / PDGFD fold change vs. control / ROCK1P1 fold change vs. control / RORB fold change vs. control / SLC8A1 fold change vs. control / SPOCK3 fold change vs. control: vs empty pcDNA3 vector
Method: DNA microarray EcR-293 cells stably transfected with 1) the empty pcDNA3 vector, 2) 5′UTR-MKL_L, 3) 5′UTR-MKL_S were grown in triplicates. For “untreated” samples, total RNA was extracted from cells in D-MEM/10% FBS. “LPA treated” cells were starved for 16 h in D-MEM/0.3% FBS and subsequently treated with 50 μm LPA for 20 min. RNA was extracted 4 h after treatment. RNA was converted into labeled cRNA and hybridized to Affymetrix Human Gene 1.0 arrays (Affymetrix, Santa Clara, Calif., USA). The procedure for the microarray analysis was as previously described (4). Differences in gene expression were calculated for 2) vs. 1), 3) vs. 1), and 3) vs. 2). • (1) Miralles F et al., Cell, Volume 113, Issue 3, May 2003, 329-342 • (2) Maier S et al., Biochimica et Biophysica Acta (BBA)—Molecular Cell Research, Volume 1783, Issue 6, June 2008, 1150-1162 • (3) Martina et al., The FASEB Journal, Volume 24, Issue 3, March 2010, 778-787 • (4) Asparuhova et al., The FASEB Journal, Volume 25, Issue 10, October 2011, 3477-3488

B1: MKL_S: novel short isoform of human MKL1 (SEQ ID NO:1), stably overexpressed in EcR-293 cells from construct 5′UTR-MKL_S (protein, listed as Homo sapiens)
chain: MTLLEPEMLMMAVQSVLQLKLQQRRTREELVSQGIMPPLKSPAAFHEQRRSLERARTEDYLKRKIRSRPERSELVRMHILEETSAEPSLQAKQLKLKRARLADDLNEKIAQRPGPMELVEKNILPVESSLKEAIIVGQVNYPKVADSSSFDEDSSDALSPEQPASHESQGSVPSPLEARVSEPLLSATSASPTQVVSQLPMGRDSREMLFLAEQPPLPPPPLLPPSLTNGTTIPTAKSTPTLIKQSQPKSASEKSQRSKKAKELKPKVKKLKYHQYIPPDQKQDRGAPPMDSSYAKILQQQQLFLQLQILNQQQQQHHNYQAILPAPPKSAGEALGSSGTPPVRSLSTTNSSSSSGAPGPCGLARQNSTSLTGKPGALPANLDDMKVAELKQELKLRSLPVSGTKTELIERLRAYQDQISPVPGAPKAPAATSILHKAGEVVVAFPAARLSTGPALVAAGLAPAEVVVATVASSGVVKFGSTGSTPPVSPTPSERSLLSTGDENSTPGDTFGEMVTSPLTQLTLQASPLQILVKEEGPRAGSCCLSPGGRAELEGRDKDQMLQEKDKQIEALTRMLRQKQQLVERLKLQLEQEKRAQQPAPAPAPLGTPVKQENSFSSCQLSQQPLGPAHPFNPSLAAPATNHIDPCAVAPGPPSVVVKQEALQPEPEPVPAPQLLLGPQGPSLIKGVAPPTLITDSTGTHLVLTVTNKNADSPGLSSGSPQQPSSQPGSPAPAPSAQMDLEHPLQPLFGTPTSLLKKEPPGYEEAMSQQPKQQENGSSSQQMDDLFDILIQSGEISADFKEPPSLPGKEKPSPKTVCGSPLAAQPSPSAELPQAAPPPPGSPSLPGRLEDFLESSTGLPLLTSGHDGPEPLSLIDDLHSQMLSSTAILDHPPSPMDTSELHFVPEPSSTMGLDLADGHLDSMDWLELSSGGPVLSLAPLSTTAPSLFSTDFLDGHDLQLHWDSCL
4 h after LPA treatment
  ACTA2 fold change MKL_S vs. MKL_L: <1.20 fold
  ADAM21 fold change MKL_S vs. MKL_L: +1.65 (2.95E−05) fold
  AMBN fold change MKL_S vs. MKL_L: +1.67 (1.04E−03) fold
  CNN2 fold change MKL_S vs. MKL_L: +1.44 (1.06E−06) fold
  DSEL fold change MKL_S vs. MKL_L: +1.50 (2.87E−04) fold
  ESRRG fold change MKL_S vs. MKL_L: <1.20 fold
  MKL1 (total) fold change MKL_S vs. MKL_L: −1.91 (3.79E−06) fold
  MMP16 fold change MKL_S vs. MKL_L: +2.54 (1.95E−05) fold
  NAP1L3 fold change MKL_S vs. MKL_L: +1.49 (1.82E−03) fold
  OSTN fold change MKL_S vs. MKL_L: +1.92 (1.57E−04) fold
  PDGFD fold change MKL_S vs. MKL_L: <1.20 fold
  ROCK1P1 fold change MKL_S vs. MKL_L: +1.60 (1.99E−03) fold
  RORB fold change MKL_S vs. MKL_L: <1.20 fold
  SLC8A1 fold change MKL_S vs. MKL_L: −1.31 (1.42E−03) fold
  SPOCK3 fold change MKL_S vs. MKL_L: 2.18 (2.70E−06) fold
  ACTA2 fold change vs. control: +2.02 (2.99E−05) fold
  ADAM21 fold change vs. control: +1.38 (3.69E−06) fold
  AMBN fold change vs. control: +5.14 (1.97E−07) fold
  CNN2 fold change vs. control: +1.67 (6.37E−08) fold
  DSEL fold change vs. control: +2.33 (1.17E−06) fold
  ESRRG fold change vs. control: +1.93 (4.52E−08) fold
  MKL1 (total) fold change vs. control: +2.41 (3.56E−07) fold
  MMP16 fold change vs. control: +5.86 (1.39E−07) fold
  NAP1L3 fold change vs. control: +2.78 (2.44E−06) fold
  OSTN fold change vs. control: +2.23 (3.48E−05) fold
  PDGFD fold change vs. control: +1.61 (8.28E−06) fold
  ROCK1P1 fold change vs. control: +1.53 (3.63E−03) fold
  RORB fold change vs. control: +1.46 (1.34E−04) fold
  SLC8A1 fold change vs. control: +1.67 (1.71E−05) fold
  SPOCK3 fold change vs. control: +5.04 (8.54E−09) fold
Untreated cells
  ACTA2 fold change MKL_S vs. MKL_L: <1.20 fold
  ADAM21 fold change MKL_S vs. MKL_L: <1.20 fold
  AMBN fold change MKL_S vs. MKL_L: +1.73 (5.61E−04) fold
  CNN2 fold change MKL_S vs. MKL_L: +1.53 (7.48E−06) fold
  DSEL fold change MKL_S vs. MKL_L: +1.51 (1.13E−03) fold
  ESRRG fold change MKL_S vs. MKL_L: <1.20 fold
  MKL1 (total) fold change MKL_S vs. MKL_L: −1.54 (8.11E−08) fold
  MMP16 fold change MKL_S vs. MKL_L: +2.03 (9.27E−06) fold
  NAP1L3 fold change MKL_S vs. MKL_L: +1.75 (1.30E−04) fold
  OSTN fold change MKL_S vs. MKL_L: +1.90 (2.17E−04) fold
  PDGFD fold change MKL_S vs. MKL_L: <1.20 fold
  ROCK1P1 fold change MKL_S vs. MKL_L: <1.20 fold
  RORB fold change MKL_S vs. MKL_L: <1.20 fold
  SLC8A1 fold change MKL_S vs. MKL_L: <1.20 fold
  SPOCK3 fold change MKL_S vs. MKL_L: +1.97 (6.82E−06) fold
  ACTA2 fold change vs. control: +2.30 (1.88E−07) fold
  ADAM21 fold change vs. control: −1.21 (1.63E−02) fold
  AMBN fold change vs. control: <1.20 fold
  CNN2 fold change vs. control: +2.53 (1.91E−08) fold
  DSEL fold change vs. control: +2.43 (5.20E−06) fold
  ESRRG fold change vs. control: +2.37 (2.34E−08) fold
  MKL1 (total) fold change vs. control: +3.70 (1.19E−11) fold
  MMP16 fold change vs. control: +2.98 (3.46E−07) fold
  NAP1L3 fold change vs. control: +2.68 (1.98E−06) fold
  OSTN fold change vs. control: <1.20 fold
  PDGFD fold change vs. control: +2.01 (4.75E−05) fold
  ROCK1P1 fold change vs. control: <1.20 fold
  RORB fold change vs. control: +1.96 (2.76E−07) fold
  SLC8A1 fold change vs. control: +1.70 (5.75E−07) fold
  SPOCK3 fold change vs. control: +3.21 (1.08E−07) fold

B2: MKL_L: published long isoform of human MKL1 (SEQ ID NO:3), stably overexpressed in EcR-293 cells from construct 5′UTR-MKL_L (protein, listed as Homo sapiens)
chain: LPPSVIAVNGMDGGGAGENDDEPVLVSLSAAPSPQSEAVANELQELSLQPELTLGLHPGRNPNLPPLSERKNVLQLKLQQRRTREELVSQGIMPPLKSPAAFHEQRRSLERARTEDYLKRKIRSRPERSELVRMHILEETSAEPSLQAKQLKLKRARLADDLNEKIAQRPGPMELVEKNILPVESSLKEAIIVGQVNYPKVADSSSFDEDSSDALSPEQPASHESQGSVPSPLEARVSEPLLSATSASPTQVVSQLPMGRDSREMLFLAEQPPLPPPPLLPPSLTNGTTIPTAKSTPTLIKQSQPKSASEKSQRSKKAKELKPKVKKLKYHQYIPPDQKQDRGAPPMDSSYAKILQQQQLFLQLQILNQQQQQHHNYQAILPAPPKSAGEALGSSGTPPVRSLSTTNSSSSSGAPGPCGLARQNSTSLTGKPGALPANLDDMKVAELKQELKLRSLPVSGTKTELIERLRAYQDQISPVPGAPKAPAATSILHKAGEVVVAFPAARLSTGPALVAAGLAPAEVVVATVASSGVVKFGSTGSTPPVSPTPSERSLLSTGDENSTPGDTFGEMVTSPLTQLTLQASPLQILVKEEGPRAGSCCLSPGGRAELEGRDKDQMLQEKDKQIEALTRMLRQKQQLVERLKLQLEQEKRAQQPAPAPAPLGTPVKQENSFSSCQLSQQPLGPAHPFNPSLAAPATNHIDPCAVAPGPPSVVVKQEALQPEPEPVPAPQLLLGPQGPSLIKGVAPPTLITDSTGTHLVLTVTNKNADSPGLSSGSPQQPSSQPGSPAPAPSAQMDLEHPLQPLFGTPTSLLKKEPPGYEEAMSQQPKQQENGSSSQQMDDLFDILIQSGEISADFKEPPSLPGKEKPSPKTVCGSPLAAQPSPSAELPQAAPPPPGSPSLPGRLEDFLESSTGLPLLTSGHDGPEPLSLIDDLHSQMLSSTAILDHPPSPMDTSELHFVPEPSSTMGLDLADGHLDSMDWLELSSGGPVLSLAPLSTTAPSLFSTDFLDGHDLQLHWDSCL
4 h after LPA treatment
  ACTA2 fold change vs. control: +1.86 (7.22E−05) fold
  ADAM21 fold change vs. control: −1.36 (8.44E−04) fold
  AMBN fold change vs. control: +3.09 (3.65E−06) fold
  CNN2 fold change vs. control: <1.20 fold
  DSEL fold change vs. control: +1.56 (1.45E−04) fold
  ESRRG fold change vs. control: +1.71 (2.20E−07) fold
  MKL1 (total) fold change vs. control: +4.61 (4.29E−09) fold
  MMP16 fold change vs. control: +2.30 (4.46E−05) fold
  NAP1L3 fold change vs. control: +1.86 (1.01E−04) fold
  OSTN fold change vs. control: <1.20 fold
  PDGFD fold change vs. control: +1.50 (2.62E−05) fold
  ROCK1P1 fold change vs. control: <1.20 fold
  RORB fold change vs. control: +1.53 (5.71E−05) fold
  SLC8A1 fold change vs. control: +2.18 (6.58E−07) fold
  SPOCK3 fold change vs. control: +2.31 (1.61E−06) fold
Untreated cells
  ACTA2 fold change vs. control: +2.62 (5.99E−08) fold
  ADAM21 fold change vs. control: −1.27 (1.586−02) fold
  AMBN fold change vs. control: −1.89 (2.18E−04) fold
  CNN2 fold change vs. control: +1.65 (2.35E−06) fold
  DSEL fold change vs. control: +1.61 (4.36E−04) fold
  ESRRG fold change vs. control: +2.14 (6.11E−08) fold
  MKL1 (total) fold change vs. control: +5.68 (1.23E−12) fold
  MMP16 fold change vs. control: +1.47 (6.97E−04) fold
  NAP1L3 fold change vs. control: +1.54 (7.53E−04) fold
  OSTN fold change vs. control: −2.38 (2.56E−05) fold
  PDGFD fold change vs. control: +1.93 (7.54E−05) fold
  ROCK1P1 fold change vs. control: <1.20 fold
  RORB fold change vs. control: +2.27 (5.80E−08) fold
  SLC8A1 fold change vs. control: +1.89 (1.37E−07) fold
  SPOCK3 fold change vs. control: +1.63 (7.80E−05) fold
